According to patent US20250376501A1 (JINGYUAN BIOSCIENCES SUZHOU, published 2025):

B1: TSLPR-his (Novoprotein Scientific Inc., Cat. No. CW75) (receptor, UniProt Q9HC73 23-231, looked up)
chain: QGGAAEGVQIQIIYFNLETVQVTWNASKYSRTNLTFHYRFNGDEAYDQCTNYLLQEGHTSGCLLDAEQRDDILYFSIRNGTHPVFTASRWMVYYLKPSSPKHVRFSWHQDAVTVTCSDLSYGDLLYEVQYRSPFDTEWQSKQENTCNVTIEGLDAEKCYSFWVRVKAMEDVYGPDTYPSDWSEVTCWQRGEIRDACAETPTPPKPKLSK
notes: Bought protein; not shown: His tag
B2: 3H10-his recombinant protein (designed binder)
chain: GSHMDLGKKLLEAAWAGRDDEVRILMANGADVNAGDASGDTPLHLAAFSGHLEIVEVLLKHGADVNAEDLLGMTPLHLAAPFGHLEIVEVLLKHGADVNAAARNNGKTPLHLAAFVGHLEIVEVLLKNGADVNAQDKFGKTAFDISIDNGNEDLAEILQKLNG
notes: Expressed in E. coli Rosetta from pet28b, purified on a nickel column; also called 3H10-his fusion protein; 3H10 recombinant protein; not shown: His tag from vector pet28b
B3: hIL-7Rα-mFc (ACROBiosystems, Cat. No. ILA-H5258) (Fc fusion, human, UniProt P16871 21-239, looked up)
chain: ESGYAQNGDLEDAELDDYSFSCYSQLEVNGSQHSLTCAFEDPDVNITNLEFEICGALVEVKCLNFRKLQEIYFIETKKFLLIGKSNICVKVGEKSLTCKKIDLTTIVKPEAPFDLSVVYREGANDFVVTFNTSHLQKKYVKVLMHDVAYRQEKDENKWTHVNLSSTKLTLLQRKLQPAAMYEIKVRSIPDHYFKGFWSEWSPSYYFRTPEINNSSGEMD
notes: Bought protein; not shown: mouse Fc tag

How the values were obtained:
[1] = molecular target: T1, hTSLP-mFc recombinant protein (ACROBiosystems, Cat. No. TSP-H5255) (human, UniProt Q969D9 29-159); assay: ELISA, hTSLP-mFc coated 50 ng/well, anti-His HRP
T1 construct: Bought protein; also called hTSLP-Fc protein; not shown: mouse Fc tag
T1 sequence (Q969D9 29-159 R127A/R130A limits assumed): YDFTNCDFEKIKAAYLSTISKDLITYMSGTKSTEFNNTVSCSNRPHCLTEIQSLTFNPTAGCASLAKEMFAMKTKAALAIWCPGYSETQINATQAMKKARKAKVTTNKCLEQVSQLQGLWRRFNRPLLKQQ
Procedure: hTSLP-mFc recombinant protein (ACROBiosystems, Cat. No. TSP-H5255) was coated onto a plate at 50 ng/well and incubated at 4° C. overnight. […] After washing, mouse anti-His tag horseradish peroxidase-labeled antibody (1:5000) (purchased from Beijing Sino Biological, 105327-MM02T-H) was added, and the mixture was reacted at room temperature for 1 hour. After washing, TMD substrate solution was added, and the absorbance was read at 450 nm. Data processing and graphical analysis were performed using the software Graphpad Prism 6.0.

[2] = molecular target: T2, hTSLP recombinant protein (ACROBiosystems, Cat. No. TSP-H52Ha) (human, UniProt Q969D9 29-159); assay: competitive ELISA: blocks binding of hIL-7Rα-mFc to hTSLP/TSLPR-Fc complex, anti-mouse Fc HRP
T2 construct: Bought protein; also called hTSLP protein; hTSLP-his; not shown: His tag
T2 sequence (Q969D9 29-159 R127A/R130A limits assumed): as above
Procedure: TSLPR-Fc fusion protein was coated onto a plate at a concentration of 0.5 μg/mL and a volume of 100 μL per well, and incubated at 4° C. overnight. […] Then, goat anti-mouse Fc tag horseradish peroxidase-labeled antibody (1:5000) was added, and the mixture was reacted at room temperature for 1 hour. Then, TMD substrate solution was added, and the absorbance was read at 450 nm. Data processing and graphical analysis were performed using the software Graphpad Prism 6.0.

[3] = molecular target: T2, hTSLP recombinant protein …; assay: competitive ELISA: blocks binding of hTSLP/hTSLPR-Fc complex to coated mouse IL-7Rα-his, anti-human Fc HRP
Procedure: Then, goat anti-human Fc tag horseradish peroxidase-labeled antibody (1:10000) was added, and the mixture was reacted at room temperature for 1 hour. Then, TMD substrate solution was added, and the absorbance was read at 450 nm. Data processing and graphical analysis were performed using the software Graphpad Prism 6.0.

[4] = molecular target: T2, hTSLP recombinant protein …; assay: cell-based or functional assay
[5] = molecular target: T3, hTSLP/TSLPR-Fc complex (human, UniProt Q9HC73 23-231); assay: ELISA, TSLPR-Fc coated, hTSLP added, hIL-7Rα-mFc titrated, anti-mouse Fc HRP
T3 construct: also called hTSLP/hTSLPR-Fc complex; not shown: His tag of the bought hTSLP; Fc tag of the bought protein (detected with anti-human Fc)
Procedure: TSLPR-Fc recombinant protein (purchased from ACROBiosystems, Cat. No. TSR-H525a) was coated onto a plate at 0.1 μg/well and incubated at 4° C. overnight. Subsequently, the plate was washed and added with 0.1 μg/well of hTSLP, and the mixture was reacted at room temperature for 1 hour. […] After washing, goat anti-mouse Fc tag horseradish peroxidase-labeled antibody (purchased from Abcam, ab97040) was added, and the mixture was reacted at room temperature for 1 hour. After washing, substrate solution was added, and the absorbance was read at 450 nm.

| Binder | EC50 [1] | IC50 [2] | IC50 [3] | inhibition of hTSLP-induced reporter gene expression in BaF3-hTSLPR-hIL-7R-STAT5-Luc cells, IC50 [4] | inhibition of the proliferation-promoting effect of hTSLP on Ba/F3-TSLPR/IL-7Rα cells (CTG), IC50 [4] | EC50 [5] |
| --- | --- | --- | --- | --- | --- | --- |
| B1 | 0.803 µg/mL | – | – | – | – | – |
| B2 | 0.029 µg/mL | 1.29 nM | 1.69 nM | 0.348 nM | 1.55 nM | – |
| B3 | – | – | – | – | – | 0.689 µg/mL |
